Key:
Assay in all cases: immobilized peptide pulldown, SILAC LC-MS/MS
Conditions in all cases: reference: unphosphorylated peptide; sites Y595
Nck2 = Nck2 (UniProt O43639)
SLP-76 = SLP-76 (UniProt Q13094)
Nck1 = Nck1 (UniProt P16333)
PLCγ1 = PLCγ1 (UniProt P19174)

- fold change (Nck2): stronger
- fold change (SLP-76): stronger
- fold change (Nck1): stronger
- fold change (PLCγ1): stronger
Substance: ADAP 586-600 (from UniProt O15117) pY595 peptide

Reference: article PMC2908683
